Test results from patent publication US20180244758A1.

B1: mAb PE-64 (antibody, V domains shown)
VH: EVQLVESGGGLVKPGGSLRLSCAASGFTFSNAWMSWVRQAPGKGLEWVGRIKSKTDGGTIDYAAPVKGRFTISRDDSKNTVYLQMTSLKTEDTAVYYCTTYTEDMRYFDWLLRGGETFDYWGQGTLVTVSS
VL: DIRLTQSPSSLSASVGDRVTITCRASHYISTYLNWYQQKPGKAPKLLIYAASNLQSGVPSRFSGSGFGTDFSLTISSLQPEDFATYHCQQSYSTPGRYTFGQGTKVEIK
B2: mAb PE-87 (antibody, V domains shown)
VH: QVQLVQSGVTLVQPGGSLRVSCAASGFTFSSYAMSWVRQAPGKGLEWVSAISGLGGSTYYADSVKGRFTISRDNSKNTLYLQMNSLRAEDTAVYYCAKDHRVWAAGYHFDYWGQGALVTVSS
VL: DIVLTQSPSTLSASVGDRVTITCRASQSISSWLAWYQQKPGEAPKLLISDASSLESGVPSRFSGSGSGTEFTLTISSLQPDDFATYYCQQYYSSPTFGGGTKVEIK

Legend:
[1] = molecular target: BDBV GP on rVSV particles (Bundibugyo virus (BDBV)); test: cell-based or functional assay
[2] = molecular target: EBOV GP on rVSV particles (Ebola virus (EBOV)) (UniProt Q05320); test: cell-based or functional assay
Chain of EBOV GP on rVSV particles (Ebola virus (EBOV)) (Q05320 33-676): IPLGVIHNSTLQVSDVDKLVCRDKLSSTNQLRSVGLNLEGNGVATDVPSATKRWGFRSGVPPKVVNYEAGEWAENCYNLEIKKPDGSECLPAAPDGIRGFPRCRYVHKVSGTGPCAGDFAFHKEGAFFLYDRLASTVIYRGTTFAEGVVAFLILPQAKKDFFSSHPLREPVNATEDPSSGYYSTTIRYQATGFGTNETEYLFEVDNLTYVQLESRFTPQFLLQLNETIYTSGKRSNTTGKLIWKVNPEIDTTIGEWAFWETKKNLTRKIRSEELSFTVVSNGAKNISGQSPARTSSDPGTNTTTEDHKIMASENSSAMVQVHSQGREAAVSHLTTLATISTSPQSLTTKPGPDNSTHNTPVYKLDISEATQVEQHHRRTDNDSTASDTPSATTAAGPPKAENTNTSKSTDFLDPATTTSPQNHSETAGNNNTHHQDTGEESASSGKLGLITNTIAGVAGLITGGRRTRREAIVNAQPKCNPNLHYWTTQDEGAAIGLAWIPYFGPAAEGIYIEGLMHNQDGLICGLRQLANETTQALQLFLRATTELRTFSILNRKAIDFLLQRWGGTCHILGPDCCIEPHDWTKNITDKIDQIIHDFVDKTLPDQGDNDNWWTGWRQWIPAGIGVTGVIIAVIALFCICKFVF

[3] = molecular target: GP of authentic (wild-type) BDBV (Bundibugyo virus (BDBV)); test: cell-based or functional assay
[4] = molecular target: GP of authentic (wild-type) EBOV (Ebola virus (EBOV)) (UniProt P87666); test: cell-based or functional assay
Chain of GP of authentic (wild-type) EBOV (Ebola virus (EBOV)) (P87666 33-676): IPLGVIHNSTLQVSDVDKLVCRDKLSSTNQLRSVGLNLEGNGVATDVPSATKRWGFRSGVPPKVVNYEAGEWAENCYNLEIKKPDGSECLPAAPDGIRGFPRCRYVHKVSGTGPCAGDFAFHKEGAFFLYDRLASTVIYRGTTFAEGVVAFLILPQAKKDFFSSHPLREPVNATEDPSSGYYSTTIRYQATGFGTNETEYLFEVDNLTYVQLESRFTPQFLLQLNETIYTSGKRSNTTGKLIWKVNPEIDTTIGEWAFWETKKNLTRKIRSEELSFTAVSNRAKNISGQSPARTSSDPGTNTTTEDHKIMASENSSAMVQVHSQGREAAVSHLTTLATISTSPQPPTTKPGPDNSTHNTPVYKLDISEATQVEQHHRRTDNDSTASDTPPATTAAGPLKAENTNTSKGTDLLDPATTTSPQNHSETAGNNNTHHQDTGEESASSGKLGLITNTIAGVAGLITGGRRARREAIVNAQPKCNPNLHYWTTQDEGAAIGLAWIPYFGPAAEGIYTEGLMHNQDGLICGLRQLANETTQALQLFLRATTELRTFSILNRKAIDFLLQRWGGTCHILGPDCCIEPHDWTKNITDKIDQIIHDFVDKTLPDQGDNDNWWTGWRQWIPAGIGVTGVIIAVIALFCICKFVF

[5] = molecular target: GP of authentic (wild-type) SUDV (Sudan virus (SUDV)) (UniProt Q66814); test: cell-based or functional assay
Chain of GP of authentic (wild-type) SUDV (Sudan virus (SUDV)) (Q66814 33-676): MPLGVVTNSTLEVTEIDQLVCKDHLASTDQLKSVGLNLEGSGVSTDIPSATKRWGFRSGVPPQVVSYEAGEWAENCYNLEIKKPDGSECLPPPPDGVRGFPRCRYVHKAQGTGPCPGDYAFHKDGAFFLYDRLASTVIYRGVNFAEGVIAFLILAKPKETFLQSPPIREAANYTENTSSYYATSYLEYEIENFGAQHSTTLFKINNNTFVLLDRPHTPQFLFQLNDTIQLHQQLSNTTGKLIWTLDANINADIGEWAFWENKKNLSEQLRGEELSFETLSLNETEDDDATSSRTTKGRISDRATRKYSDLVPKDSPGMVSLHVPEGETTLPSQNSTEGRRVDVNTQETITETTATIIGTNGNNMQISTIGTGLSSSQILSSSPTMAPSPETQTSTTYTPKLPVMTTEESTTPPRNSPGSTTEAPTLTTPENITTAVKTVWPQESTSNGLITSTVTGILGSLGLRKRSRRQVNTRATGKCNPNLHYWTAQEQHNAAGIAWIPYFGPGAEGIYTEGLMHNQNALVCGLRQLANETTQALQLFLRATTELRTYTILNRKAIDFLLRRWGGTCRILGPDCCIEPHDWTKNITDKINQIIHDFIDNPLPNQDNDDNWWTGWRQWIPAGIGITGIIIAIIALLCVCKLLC

[6] = molecular target: SUDV GP on rVSV particles (Sudan virus (SUDV)) (UniProt Q66814); test: cell-based or functional assay
Chain of SUDV GP on rVSV particles (Sudan virus (SUDV)) (Q66814 33-676): as above

[7] = molecular target: TAFV GP on VSV pseudotype particles (Tai Forest virus (TAFV)) (UniProt Q66810); test: cell-based or functional assay
Chain of TAFV GP on VSV pseudotype particles (Tai Forest virus (TAFV)) (Q66810 33-676): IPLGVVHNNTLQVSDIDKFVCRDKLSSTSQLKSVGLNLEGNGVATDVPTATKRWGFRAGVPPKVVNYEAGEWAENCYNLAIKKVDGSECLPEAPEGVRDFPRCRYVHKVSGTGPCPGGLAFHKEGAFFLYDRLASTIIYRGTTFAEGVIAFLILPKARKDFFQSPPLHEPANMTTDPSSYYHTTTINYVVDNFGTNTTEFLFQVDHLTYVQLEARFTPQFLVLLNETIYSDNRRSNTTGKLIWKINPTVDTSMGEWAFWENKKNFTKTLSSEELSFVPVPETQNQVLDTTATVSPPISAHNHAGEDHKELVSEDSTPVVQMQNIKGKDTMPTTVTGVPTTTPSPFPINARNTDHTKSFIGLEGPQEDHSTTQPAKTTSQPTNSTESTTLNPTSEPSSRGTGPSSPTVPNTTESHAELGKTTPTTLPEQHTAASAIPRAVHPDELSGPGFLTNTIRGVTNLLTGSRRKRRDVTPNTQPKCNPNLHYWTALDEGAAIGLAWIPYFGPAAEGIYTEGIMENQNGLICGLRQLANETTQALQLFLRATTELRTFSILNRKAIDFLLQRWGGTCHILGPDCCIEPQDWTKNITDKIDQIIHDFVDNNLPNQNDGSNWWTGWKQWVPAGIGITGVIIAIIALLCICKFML

[8] = molecular target: EBOV GPCL (cleaved GP) (Ebola virus (EBOV)) (UniProt Q05320)
Chain of EBOV GPCL (cleaved GP) (Ebola virus (EBOV)) (Q05320 33-190 limits assumed, chain 1 of 2): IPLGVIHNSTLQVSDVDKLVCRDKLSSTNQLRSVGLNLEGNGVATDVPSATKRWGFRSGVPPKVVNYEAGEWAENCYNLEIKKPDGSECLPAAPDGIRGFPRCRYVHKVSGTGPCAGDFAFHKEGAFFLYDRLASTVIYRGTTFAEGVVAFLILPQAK
Chain of EBOV GPCL (cleaved GP) (Ebola virus (EBOV)) (Q05320 502-637 limits assumed, chain 2 of 2): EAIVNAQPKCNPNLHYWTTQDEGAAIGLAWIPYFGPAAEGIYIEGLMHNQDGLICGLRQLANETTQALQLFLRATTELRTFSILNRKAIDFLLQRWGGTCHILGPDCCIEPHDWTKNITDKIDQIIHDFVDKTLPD

Binder	rVSV-GP neutralization IC50 [1] [nM]	rVSV-GP neutralization IC50 [2] [nM]	Authentic virus neutralization IC50 [3] [nM]	Authentic virus neutralization IC50 [4] [nM]	Authentic virus neutralization IC50 [5] [nM]	rVSV-GP neutralization IC50 [6] [nM]	rVSV-GP neutralization IC50 [7] [nM]	Kd [8] [nM]
B1	0.4	2.5	1.5	0.6	120	40	8	
B2								< 0.001
